Results reported in article PMC7661038, “Dot1l interacts with Zc3h10 to activate Ucp1 and other thermogenic genes” (eLife, 2020).

Target: T1, Flag-Zc3h10 (mouse, UniProt Q8R205 1-435)
T1 sequence (looked up): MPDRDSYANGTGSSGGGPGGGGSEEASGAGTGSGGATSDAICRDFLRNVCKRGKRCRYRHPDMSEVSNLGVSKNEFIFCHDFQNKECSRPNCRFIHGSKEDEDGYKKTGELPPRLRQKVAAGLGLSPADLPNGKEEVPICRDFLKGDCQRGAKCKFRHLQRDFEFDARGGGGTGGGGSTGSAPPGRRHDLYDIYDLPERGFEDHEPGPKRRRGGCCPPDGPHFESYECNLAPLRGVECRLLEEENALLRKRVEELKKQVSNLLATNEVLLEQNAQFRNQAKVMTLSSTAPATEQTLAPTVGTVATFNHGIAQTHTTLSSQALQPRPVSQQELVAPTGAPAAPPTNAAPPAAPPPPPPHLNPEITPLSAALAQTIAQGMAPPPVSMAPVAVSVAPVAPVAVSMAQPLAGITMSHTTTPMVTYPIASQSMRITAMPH
Test: cell-based or functional assay

Ucp1 promoter activity, luciferase reporter (−5.5 kb Ucp1-Luc) in HEK293 cells cotransfected with Zc3h10 and Dot1l, against empty vector control (Zc3h10 alone over 3-fold; Dot1l alone no activation): 11 fold
B1: HA-Dot1l (enzyme, mouse, UniProt Q6XZL8 1-1540, looked up)
chain: MGEKLELRLKSPVGAEPAVYPWPLPVYDKHHDAAHEIIETIRWVCEEIPDLKLAMENYVLIDYDTKSFESMQRLCDKYNRAIDSIHQLWKGTTQPMKLNTRPSNGLLRHILQQVYNHSVTDPEKLNNYEPFSPEVYGETSFDLVAQMIDEIKMTEDDLFVDLGSGVGQVVLQVAAATNCKHHYGVEKADIPAKYAETMDREFRKWMKWYGKKHAEYTLERGDFLSEEWRERIANTSVIFVNNFAFGPEVDHQLKERFANMKEGGRIVSSKPFAPLNFRINSRNLSDIGTIMRVVELSPLKGSVSWTGKPVSYYLHTIDRTILENYFSSLKNPKLREEQEAARRRQQRENKSNATTPTKVPESKAAATEAPADSGAEEEKSGVATVKKPSPSKARKKKLNKKGRKMAGRKRGRPKKMSAASAERKSKKSQSTLDLLHSPPPAPPSASPQDAYRAPHSPFYQLPPSTQLHSPNPLLVAPTPPALQKLLESFRIQYLQFLAYTKTPQYKANLQQLLDQEKEKNTQLLGTAQQLFGHCQAQKEEIRRLFQQKLDELGVKALTYNDLIQAQKEISAHNQQLREQSEQLEKDNSELRSQSLRLLRARCEELRLDWSTLSLENLRKEKQALRSQISEKQRHCLELQISIVELEKTQRQQELLQLKSCVPPDDALSLHLRGKGALGRELEADAGRLRLELDCAKISLPHLSSMSPELSMNGHAASYELCNAASRPSSKQNTPQYLASPLDQEVVPCTPSHSGRPRLEKLSGLALPDYTRLSPAKIVLRRHLSQDHTGASKAATSEPHPRPEHPKESSLPYQSPGLSNSMKLSPQDPPLASPATSPLTSEKGSEKGVKERAYSSHGETITSLPVSIPLSTVQPNKLPVSIPLASVVLPSRAERARSTPSPVPQPRDSSATLEKQTGASAHGAGGAGAGSRSLAVAPTGFYAGSVAISGALASSPAPLASGMESAVFDESSGPSSLFATMGSRSTPPQHPPLLSQSRNSGPASPAHQLTASPRLSVTTQGSLPDTSKGELPSDPAFSDPESEAKRRIVFSISVGASSKQSPSTRHSPLTSGTRGDCVQSHGQDSRKRSRRKRASAGTPSLSTGVSPKRRALPTVAGLFTQSSGSPLNLNSMVSNINQPLEITAISSPESSLKSSPTPYQDHDQPPVLRKERPLGLTNGAHYSPLTSDEEPGSEDEPSSARIERKIATISLESKSPPKTLENGGGLVGRKSAPSSEPINSSKWKSTFSPISDLGLAKAVDSPLQAGSALSHSPLFSFRPSLEEPAAEAKLPTHPRKSFAGSLGAAEGPSPGTNPPNGLAFSGGLAADLGLHSFNDGASLSHKGPDVTGLSASLSFPSQRGKDSTTEANPFLSRRQPEGLGGLKGEGNANKESGESLPLCGPSDKASLPHGSRASKGRDRELDFKGGHNLFISAAAVPPGGLLGGPGLVTVASSAGSATPTAQAPRPFLSTFAPGPQFTLGPMSLQANLGSVAGSSVLQSLFSTVPAAAGLVHVSSTATRLTNSHTMGSFSSGVAGGTVGGN
